Measurements published in paper PMC10397247.
One block for each binder: values may come before it.

Assays:
4H2619-bA = molecular target: T1, 4H2619-bA; assay: two-hybrid library CCNG1;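 note: natural log of median RNA to DNA barcode read ratio; higher means stronger binding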
T1 chain: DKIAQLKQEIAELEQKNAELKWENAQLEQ

4H3070-bA = molecular target: T2, 4H3070-bA; assay: two-hybrid library CCNG1;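 note: natural log of median RNA to DNA barcode read ratio; higher means stronger binding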
T2 chain: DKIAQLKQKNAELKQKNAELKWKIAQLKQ

4H342-bA = molecular target: T3, 4H342-bA; assay: two-hybrid library CCNG1;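 note: natural log of median RNA to DNA barcode read ratio; higher means stronger binding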
T3 chain: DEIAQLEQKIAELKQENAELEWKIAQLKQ

4H2691-bA = molecular target: T4, 4H2691-bA; assay: two-hybrid library CCNG1;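 note: natural log of median RNA to DNA barcode read ratio; higher means stronger binding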
T4 chain: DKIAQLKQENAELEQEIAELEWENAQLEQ

4H3632-bA = molecular target: T5, 4H3632-bA; assay: two-hybrid library CCNG1;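 note: natural log of median RNA to DNA barcode read ratio; higher means stronger binding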
T5 chain: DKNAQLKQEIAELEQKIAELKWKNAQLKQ

4H145-bA = molecular target: T6, 4H145-bA; assay: two-hybrid library CCNG1;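 note: natural log of median RNA to DNA barcode read ratio; higher means stronger binding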
T6 chain: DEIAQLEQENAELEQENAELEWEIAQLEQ

4H1347-bA = molecular target: T7, 4H1347-bA; assay: two-hybrid library CCNG1
T7 chain: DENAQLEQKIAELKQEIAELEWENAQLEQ

4H496-bA = molecular target: T8, 4H496-bA; assay: two-hybrid library CCNG1
T8 chain: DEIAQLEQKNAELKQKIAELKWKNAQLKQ

P3mS = molecular target: T9, P3mS; assay: two-hybrid library CCNG1
T9 chain: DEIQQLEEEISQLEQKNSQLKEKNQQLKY

P11mS = molecular target: T10, P11mS; assay: two-hybrid library CCNG1
T10 chain: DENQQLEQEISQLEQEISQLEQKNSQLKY

P12mS = molecular target: T11, P12mS; assay: two-hybrid library CCNG1
T11 chain: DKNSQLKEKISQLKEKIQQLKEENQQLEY

P7mS = molecular target: T12, P7mS; assay: two-hybrid library CCNG1
T12 chain: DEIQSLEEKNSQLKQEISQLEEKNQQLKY

P8mS = molecular target: T13, P8mS; assay: two-hybrid library CCNG1
T13 chain: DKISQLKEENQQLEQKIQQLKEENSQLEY

P9mS = molecular target: T14, P9mS; assay: two-hybrid library CCNG1
T14 chain: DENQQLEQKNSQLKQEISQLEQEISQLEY

P4mS = molecular target: T15, P4mS; assay: two-hybrid library CCNG1
T15 chain: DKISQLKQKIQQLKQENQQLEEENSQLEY

P10mS = molecular target: T16, P10mS; assay: two-hybrid library CCNG1
T16 chain: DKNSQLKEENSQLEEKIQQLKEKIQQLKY

P5mS = molecular target: T17, P5mS; assay: two-hybrid library CCNG1
T17 chain: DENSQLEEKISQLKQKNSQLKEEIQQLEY

P6mS = molecular target: T18, P6mS; assay: two-hybrid library CCNG1
T18 chain: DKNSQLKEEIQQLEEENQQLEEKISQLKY

Core_NNNI-es_KEKE = molecular target: T19, Core_NNNI-es_KEKE; assay: two-hybrid library CCmax; settings: mean of both orientations
T19 chain: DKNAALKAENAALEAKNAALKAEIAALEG

Core_NINN-es_KEKE = molecular target: T20, Core_NINN-es_KEKE; assay: two-hybrid library CCmax; settings: mean of both orientations
T20 chain: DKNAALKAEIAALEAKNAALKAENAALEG

P4SN [1] = molecular target: T21, P4SN; assay: two-hybrid library CCmax
T21 chain: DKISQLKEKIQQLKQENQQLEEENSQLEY

P4SN [2] = molecular target: T21, P4SN; assay: two-hybrid library CCNG1; settings: mean of both orientations

- interaction score (4H2619-bA): -0.421
- interaction score (4H3070-bA): -0.786
- interaction score (4H342-bA): -0.567
- interaction score (4H2691-bA): -0.56
- interaction score (4H3632-bA): 1.92
- interaction score (4H145-bA): -0.0112
- interaction score (4H1347-bA): -0.84
- interaction score (4H496-bA): -0.596
B1: 4H1347-bA (peptide)
chain: DENAQLEQKIAELKQEIAELEWENAQLEQ

- interaction score (P3mS): -1.79
- interaction score (P11mS): 0.347
- interaction score (P12mS): 0.126
- interaction score (P7mS): 0.649
- interaction score (P8mS): -0.478
- interaction score (P9mS): -0.677
- interaction score (P4mS): 0.178
- interaction score (P10mS): -0.344
- interaction score (P5mS): -1.28
- interaction score (P6mS): -2.03
B2: P10mS (peptide)
chain: DKNSQLKEENSQLEEKIQQLKEKIQQLKY

- interaction score (Core_NNNI-es_KEKE): 2.1
B3: Core_NNNI-es_EKEK (peptide)
chain: DENAALEAKNAALKAENAALEAKIAALKG

- interaction score (Core_NINN-es_KEKE): 1.51
B4: Core_NINN-es_EKEK (peptide)
chain: DENAALEAKIAALKAENAALEAKNAALKG

- interaction score (P4SN [1]): -0.993
- interaction score (P4SN [2]): 1.25
B5: P3SN (peptide)
chain: DEIQQLEEEISQLEQKNSELKEKNQELKY
